Data as given in the RNAGym collection of RNA variant scans (doi:10.1093/nar/gkz1192).

B1: CPEB3 Ribozyme (parent)
chain: UAACAGGGGGCCACAGCAGAAGCGUUCACGUCGCAGCCCCUGUCAGAUUCUGGUGAAUCUGCGAAUUCUGCUGUAUAUCUC

Variants of: B1
Test: self-cleavage, relative activity (ratio to wild type); higher = more cleavage; in vitro, sequencing
Method in brief: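 After error-prone PCR and barcoding, CPEB3 ribozyme mutant libraries were transcribed with T7 RNA polymerase at 37°C for 5 hours, then given 15 min with DNase I before an EDTA stop, and they cleaved during both steps. Reverse transcription with template switching preceded Illumina sequencing. Relative activity divides a variant's cleaved/total read fraction by the unmutated ribozyme's. At least 5 reads were required per variant, and three batches were averaged.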

Going from UAACAGGGGGCCUCAGCAAAAGCGUUCACGUCGCAGCCCCUGUCAGAUUCUGGUGAAUCUGCGAAUUCUGCUGUAUAUCUC [A13U G19A] to UAACAGGGGGCCUCAGCAGAAGCGUUCACGUCGCAGCCCCUGUCAGAUUCUGGUGAAUCUGUGAAUUCUGCUGUAUAUCUC [A13U C62U], the self-cleavage rises from 0.17 to 0.22.

Going from UAACAGGGGGCCUCAGCAGAAGCGUUCACGUCGCAGCCCCUGUCAGAUUCUGGUGAAUCUGCGAAUUCUGCUGUAUAUCUU [A13U C81U] to UAACAGGGGGCCUCAGCAGAAGCGUUCACGUCGCAGCCCCUGUCAGAUUCUGGUGAAUAUGCGAAUUCUGCUGUAUAUCUC [A13U C59A], the self-cleavage falls from 1.2 to 0.58.

Going from UAACAGGGGGCCUCAGCAGAAGCAUUCACGUCGCAGCCCCUGUCAGAUUCUGGUGAAUCUGCGAAUUCUGCUGUAUAUCUC [A13U G24A] to UAACAGGGGGCCUCAGCAGAAGCGUUCACAUCGCAGCCCCUGUCAGAUUCUGGUGAAUCUGCGAAUUCUGCUGUAUAUCUC [A13U G30A], the self-cleavage falls from 0.26 to 0.24.

Compared with UAACAGGGGGCCUCAGCAGAAGCGUUCACGUCGCAGCCCCUGUAAGAUUCUGGUGAAUCUGCGAAUUCUGCUGUAUAUCUC [A13U C44A], UAACAGGGGGCCUCAGCAGAAGCGUUCACGUCGCAGCCCCUGUUAGAUUCUGGUGAAUCUGCGAAUUCUGCUGUAUAUCUC [A13U C44U] is lower in self-cleavage: 0.29 for the first, 0.23 for the second.

First: UAACAGGGGGCCUCAGCAGAAGCGUUCACGUCGCAGCCCCUGUCAGAUUCUGGUGAAUCUGCGAAUUUUGCUGUAUAUCUC [A13U C68U]
Second: UAACAGGGGGCCUCAGCAGAAGCGUUCACGUCGCAGCCCCUGUCAGAUUCUGGUGAAUCUGCGAAUUAUGCUGUAUAUCUC [A13U C68A]
The self-cleavage of the first is higher: 1.21 for the first, 0.54 for the second.

Going from UAACAGGGGGCCUCAGCAGAAGCGUUCACGUCGCAGCCGCUGUCAGAUUCUGGUGAAUCUGCGAAUUCUGCUGUAUAUCUC [A13U C39G] to UAACAGGGGGCCUCAGCAGAAGCGUUCACGUCGCAGCCUCUGUCAGAUUCUGGUGAAUCUGCGAAUUCUGCUGUAUAUCUC [A13U C39U], the self-cleavage rises from 0.51 to 1.18.

First: UAACAGGGGGCCUCAGCAGAAGCGUUCACGUCGCAGCCACUGUCAGAUUCUGGUGAAUCUGCGAAUUCUGCUGUAUAUCUC [A13U C39A]
Second: UAACAGGGGGCCUCAGCAGAAGCGUUCACGUCGCAGUCCCUGUCAGAUUCUGGUGAAUCUGCGAAUUCUGCUGUAUAUCUC [A13U C37U]
The self-cleavage of the first is lower: 0.15 for the first, 1.09 for the second.

Compared with UAACAGGGGGCCUCAGCAGAAGCGUUCACGUCGCAGCCCUUGUCAGAUUCUGGUGAAUCUGCGAAUUCUGCUGUAUAUCUC [A13U C40U], UAACAGGGGGCCUCAGCAGAAGCGUUUACGUCGCAGCCCCUGUCAGAUUCUGGUGAAUCUGCGAAUUCUGCUGUAUAUCUC [A13U C27U] is lower in self-cleavage: 1.25 for the first, 0.24 for the second.

Compared with UAACAGGGGGCCUCAGCAGAAGCGUUAACGUCGCAGCCCCUGUCAGAUUCUGGUGAAUCUGCGAAUUCUGCUGUAUAUCUC [A13U C27A], UAACAGGGGGCCUCAGCAGAAGCGUUCACGUUGCAGCCCCUGUCAGAUUCUGGUGAAUCUGCGAAUUCUGCUGUAUAUCUC [A13U C32U] is higher in self-cleavage: 0.17 for the first, 0.25 for the second.

Compared with UAACAGGGGGCCUCAGCAGAAGCGUUCACGUGGCAGCCCCUGUCAGAUUCUGGUGAAUCUGCGAAUUCUGCUGUAUAUCUC [A13U C32G], UAACAGGGGGCCUCAGCAGAAGCGUUCACGUAGCAGCCCCUGUCAGAUUCUGGUGAAUCUGCGAAUUCUGCUGUAUAUCUC [A13U C32A] is lower in self-cleavage: 0.45 for the first, 0.2 for the second.

Going from UAACAGGGGGCCUCAUCAGAAGCGUUCACGUCGCAGCCCCUGUCAGAUUCUGGUGAAUCUGCGAAUUCUGCUGUAUAUCUC [A13U G16U] to UAACAGGGGGCCUCAGCAGAAGCGUUCAUGUCGCAGCCCCUGUCAGAUUCUGGUGAAUCUGCGAAUUCUGCUGUAUAUCUC [A13U C29U], the self-cleavage rises from 0.47 to 0.58.

First: UAACAGGGGGCCUCAGCAGAACCGUUCACGUCGCAGCCCCUGUCAGAUUCUGGUGAAUCUGCGAAUUCUGCUGUAUAUCUC [A13U G22C]
Second: UAACAGGGGGCCUCAGCAGAAUCGUUCACGUCGCAGCCCCUGUCAGAUUCUGGUGAAUCUGCGAAUUCUGCUGUAUAUCUC [A13U G22U]
The self-cleavage of the first is lower: 0.19 for the first, 0.34 for the second.

First: UAACAGGGGGCCUCAGCAGAAGCGUUCACGUCGUAGCCCCUGUCAGAUUCUGGUGAAUCUGCGAAUUCUGCUGUAUAUCUC [A13U C34U]
Second: UAACAGGGGGCCUCAGCAGAAGCGUUCACGUCGCAGCUCCUGUCAGAUUCUGGUGAAUCUGCGAAUUCUGCUGUAUAUCUC [A13U C38U]
The self-cleavage of the first is lower: 0.43 for the first, 0.89 for the second.

First: UAACAGGGGGCCUCAGCAGAAGCGUUCACGUCGCAGCGCCUGUCAGAUUCUGGUGAAUCUGCGAAUUCUGCUGUAUAUCUC [A13U C38G]
Second: UAACAGGGGGCCUCAGCAGAAGCGUUCACGUCGCAGCACCUGUCAGAUUCUGGUGAAUCUGCGAAUUCUGCUGUAUAUCUC [A13U C38A]
The self-cleavage of the first is higher: 0.41 for the first, 0.12 for the second.

Compared with UAACAGGGGGCCUCAGCAGAAGCGUUCACGUCGCAGCCCCUGUCAGAUUCUGGUGAAUCUGCGAAUUCUGCUGUAUAUAUC [A13U C79A], UAACAGGGGGCCUCAGCAGAAGCGUUCACGUCGCAGCCCCUGUCAGAUUCUGGUGAAUCUGCGAAUUCUGCUGUAUAUUUC [A13U C79U] is higher in self-cleavage: 1.28 for the first, 1.31 for the second.

Compared with UAACAGGGGGCCUCAGCAGAAGCGUUCACGUCGCAGCCCCUGUCAGAUUCUGGUGAAUCUGCGAAUUCUGAUGUAUAUCUC [A13U C71A], UAACAGGGGGCCUCAGCAGAAGUGUUCACGUCGCAGCCCCUGUCAGAUUCUGGUGAAUCUGCGAAUUCUGCUGUAUAUCUC [A13U C23U] is lower in self-cleavage: 0.33 for the first, 0.15 for the second.

Compared with UAACAGGGGGCCUCAGCAGAAGCGUUCACGUCGCAGCCCCUGUCAGAUUUUGGUGAAUCUGCGAAUUCUGCUGUAUAUCUC [A13U C50U], UAACAGGGGGCCUCAGCAGAAGCGUUCACGUCGCAGCCCCUGUCAGAUUAUGGUGAAUCUGCGAAUUCUGCUGUAUAUCUC [A13U C50A] is higher in self-cleavage: 0.89 for the first, 0.98 for the second.
